Assay in all cases: MST
For assay [1], the target named is T1, FgSreA, 6xHis-tagged recombinant protein (Fusarium graminearum PH-1).
Assay [2] concerns the target T1, FgSreA, 6xHis-tagged recombinant protein. This is another data set of the same source.
Assay [3] concerns the target FgHapX, 6xHis-tagged recombinant protein (Fusarium graminearum PH-1).

Where two headings read alike, the source gives them in different places.

B1: FgSwc6, 6xHis-tagged recombinant protein (natural protein)
chain: MNNFGVIELASAKTTSAPGWAYVPDNTISRPTAPTNRKRARNVPGLTYSDLTARQDNKIRKEVEALDKDGGKDNTIPLPVKSGRVQGKHTPNVRKILQSQKTFGNHLDDFLAMQALVESNPAISRASGANSKRPSVSRKDTPSSSKPPPDEDTTMTDANLQPLLPEPSRSPPASHPGDYNPLLVSRVPDMPSDEELRRLLAHPPLNYGEATGTRDTKYPARSFCEVCGYWGRVRCMKCGTRVCALDCLEAHKEECVTRYGP
Regarding B1, the Kd was determined as 398 µM in assay [1] and 3.04 µM in assay [2].

B2: FgUbp8, 6xHis-tagged recombinant protein (natural protein)
chain: MSARPTTPASPKNVRVKSPVPGLPMFGCEHIQLLLSKNQEVMNSSITHYKLILRGIFDATPIVPQTSTLDGRPVTSLTSNYLCLQCPSTVTEEERLRHGTKKQHRFYVDSRSGCLYCQICDDYIWDPTLEELRVRKIGTGSFSGRKRKHDELFTGSFKDDPRFISSNTNTASCRANGLRGIYNAGATCYQNVVLQSFLHNPLLRNFYLSDGHQSSDCQVSHCLSCAMDDMFQDFYALETTNGYTAANILSGFWISEKKAFENLVTTKEQDAHEFFQFLAEELHERNGDGKKPEIGSEHSCNCIMHQTFYGKMQTTTTCQNCSGQSNSIQSFLDLSLGLDNVVQKKSKRTGQKKPTVSLQDCLDEEYIKYDKCEYRCNNCNGTQQAKRHTSIKRLPNVLSIQLKRFEYKHGRHDRAASKVDNEVKFPLQLNMMPYTNRIRNHDSRESLELERSCTYDLLSVVVHVGELDTGHYTSYCRVGDQWFKFNDHKVELASLSDVLGAQAYLLFYIIRSLA
As to B2, the dissociation constant Kd in assay [3] was found to be 1.9 µM.

What is called Kd is a measure of binding affinity in units of concentration.

The values are drawn from publication PMC10602907 (2023).
